Measurements taken from patent publication US20250066455A1 (published 2025).

B1: REGN10933 (antibody, V domains shown)
VH: QVQLVESGGGLVKPGGSLRLSCAASGFTFSDYYMSWIRQAPGKGLEWVSYITYSGSTIYYADSVKGRFTISRDNAKSSLYLQMNSLRAEDTAVYYCARDRGTTMVPFDYWGQGTLVTVSS
VL: DIQMTQSPSSLSASVGDRVTITCQASQDITNYLNWYQQKPGKAPKLLIYAASNLETGVPSRFSGSGSGTDFTFTISGLQPEDIATYYCQQYDNLPLTFGGGTKVEIKR
B2: REGN10987 (antibody, V domains shown)
VH: QVQLVESGGGVVQPGRSLRLSCAASGFTFSNYAMYWVRQAPGKGLEWVAVISYDGSNKYYADSVKGRFTISRDNSKNTLYLQMNSLRTEDTAVYYCASGSDYGDYLLVYWGQGTLVTVSS
VL: QSALTQPASVSGSPGQSITISCTGTSSDVGGYNYVSWYQQHPGKAPKLMIYDVSKRPSGVSNRFSGSKSGNTASLTISGLQSEDEADYYCNSLTSISTWVFGGGTKLTVLR

Target: SARS-CoV-2 WT Spike (SARS-CoV-2, UniProt P0DTC2 14-1208)
Experiment: BLI

Binder | Kd
B1 | < 0.01 nM
B2 | < 0.01 nM
